Data as given in article PMC6089211, “Expression and purification of human diacylglycerol kinase α from baculovirus-infected insect cells for structural studies” (PeerJ, 2018).

Tested on: T1, Nc1ncnc2c1ncn2[C@@H]1O[C@H](COP(=O)(O)OP(=O)(O)OP(=O)(O)O)[C@@H](O)[C@H]1O
T1 construct: full-length DGKα (aa 1–735), N-terminal His×6 tag, Sf9-expressed
Experiment: Michaelis–Menten kinetics, mixed micelle ADP-Glo assay (Km)
Type: biochemical, Homo sapiens
Details: Mg2+, Ca2+ substrate (ATP and DG) binding sites locate in the CD

diacylglycerol kinase α (DGKα) (Homo sapiens), sequence (chain, as listed by the source): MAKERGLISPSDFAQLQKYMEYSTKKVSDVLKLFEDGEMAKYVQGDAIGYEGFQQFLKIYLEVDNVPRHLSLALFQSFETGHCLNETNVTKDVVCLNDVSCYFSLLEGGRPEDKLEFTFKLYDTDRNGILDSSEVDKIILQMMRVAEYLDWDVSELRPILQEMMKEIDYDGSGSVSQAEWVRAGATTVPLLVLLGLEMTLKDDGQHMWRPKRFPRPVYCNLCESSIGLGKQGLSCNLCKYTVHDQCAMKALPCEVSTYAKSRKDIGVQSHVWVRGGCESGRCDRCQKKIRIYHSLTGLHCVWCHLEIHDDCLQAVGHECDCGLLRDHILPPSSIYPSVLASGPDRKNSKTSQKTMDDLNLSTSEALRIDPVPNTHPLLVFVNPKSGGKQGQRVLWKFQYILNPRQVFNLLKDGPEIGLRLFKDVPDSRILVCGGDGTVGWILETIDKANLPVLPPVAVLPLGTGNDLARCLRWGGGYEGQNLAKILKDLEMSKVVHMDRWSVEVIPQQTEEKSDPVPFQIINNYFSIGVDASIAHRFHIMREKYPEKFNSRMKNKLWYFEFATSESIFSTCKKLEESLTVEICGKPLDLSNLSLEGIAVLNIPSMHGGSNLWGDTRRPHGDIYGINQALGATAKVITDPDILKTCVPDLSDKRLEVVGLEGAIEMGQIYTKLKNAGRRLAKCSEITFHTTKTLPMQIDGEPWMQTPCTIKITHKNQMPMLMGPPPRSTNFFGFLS

## diacylglycerol kinase α (DGKα) (Homo sapiens)
  Km: 240 ± 30 µM
  Vmax: 2.66 ± 0.15 nmol/min/µg
